This is an account of results in publication PMC7998613, “Annexin A2 Flop-Out Mediates the Non-Vesicular Release of DAMPs/Alarmins from C6 Glioma Cells Induced by Serum-Free Conditions” (Cells, 2021).

Data set [1] concerns the molecule itself. Nature of the data set: SDS-resistant band on the immunoblot of the pull-down eluate; The Strep-tagII-S100A13 pull-down eluate from the C6 glioma cytosolic fraction was run on SDS-PAGE and blotted with anti-ANXA2. The 63 kDa band is read as the ANXA2 dimer. In general terms: In western blotting, separated proteins are transferred to a membrane and probed.
Data set [2] deals with T1, recombinant Strep-tagII-S100A13 protein.
T1 chain: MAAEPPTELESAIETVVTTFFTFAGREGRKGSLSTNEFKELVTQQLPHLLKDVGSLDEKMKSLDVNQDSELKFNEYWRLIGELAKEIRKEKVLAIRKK
Nature of the data set: ELISA; vehicle 0.05% DMSO. (In general: ELISA stands for enzyme-linked immunosorbent assay.)

For data set [3] the target is unchanged. Put plainly: ELISA; 100 uM amlexanox.

B1: annexin A2 (ANXA2), endogenous in C6 glioma cells (natural protein, rat (endogenous in C6 glioma cells), UniProt Q07936 1-339, looked up)
chain: MSTVHEILCKLSLEGDHSTPPSAYGSVKPYTNFDAERDALNIETAIKTKGVDEVTIVNILTNRSNAQRQDIAFAYQRRTKKELPSAMKSALSGHLETVMLGLLKTPAQYDASELKASMKGLGTDEDSLIEIICSRTNQELQEINRVYKEMYKTDLEKDIISDTSGEFRKLLVALAKGKRAEDGSVIDYELIDQDARELYDAGVKRKGTDVPKWISIMTERSVCHLQKVFERYKSYSPYDMLESIRKEVKGDLENAFLNLVQCIQNKPLYFADRLYDSMKGKGTRDKVLIRIMVSRSEVDMLKIRSEFKRKYGKSLYYFIQQDTKGDYQKALLYLCGGDD
notes: annexin A2, rat, endogenous in C6 glioma cells; In whole cell extracts it ran as a single band; also called dimeric ANXA2 of 63 kDa; ANXA2 dimer; source: endogenous, rat C6 glioma cells (cytosolic fraction; fixed cells for in situ PLA)
Consider B1, for which, in data set [1], the stoichiometry N (as a rule, a count of units in the complex or per binding partner) came out at 2. The results for the Kd in data set [2] and in data set [3] were 416 nM and 418 nM, respectively.
